Measured values: patent publication EP4711384A1 (WIO Bioscience Co., Ltd., dated 2026)
Residue numbers refer to the chain shown, from its start. Where “and” joins values, the source holds several entries; their conditions need not be identical. Equal values may be shown once.

T1: human IL-18R1 and IL-18RAP on IL-18 Reporter HEK 293 Cells (human, UniProt Q13478 19-541; O95256 20-599)
T1 sequence (looked up) 1: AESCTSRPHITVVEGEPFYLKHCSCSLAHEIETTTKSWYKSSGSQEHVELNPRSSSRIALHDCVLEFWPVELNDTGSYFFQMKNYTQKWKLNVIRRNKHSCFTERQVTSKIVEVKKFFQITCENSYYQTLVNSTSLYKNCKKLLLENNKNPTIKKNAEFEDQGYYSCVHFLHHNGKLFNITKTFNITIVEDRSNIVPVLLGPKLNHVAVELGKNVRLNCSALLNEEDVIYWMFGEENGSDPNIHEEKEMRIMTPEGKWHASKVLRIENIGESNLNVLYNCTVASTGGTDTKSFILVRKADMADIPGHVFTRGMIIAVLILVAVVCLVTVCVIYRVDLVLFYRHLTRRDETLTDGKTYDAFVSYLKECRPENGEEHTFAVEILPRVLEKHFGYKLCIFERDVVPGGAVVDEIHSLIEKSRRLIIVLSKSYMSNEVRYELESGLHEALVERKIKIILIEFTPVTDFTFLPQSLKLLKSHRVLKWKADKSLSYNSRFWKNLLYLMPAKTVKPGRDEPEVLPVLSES
T1 sequence (looked up) 2: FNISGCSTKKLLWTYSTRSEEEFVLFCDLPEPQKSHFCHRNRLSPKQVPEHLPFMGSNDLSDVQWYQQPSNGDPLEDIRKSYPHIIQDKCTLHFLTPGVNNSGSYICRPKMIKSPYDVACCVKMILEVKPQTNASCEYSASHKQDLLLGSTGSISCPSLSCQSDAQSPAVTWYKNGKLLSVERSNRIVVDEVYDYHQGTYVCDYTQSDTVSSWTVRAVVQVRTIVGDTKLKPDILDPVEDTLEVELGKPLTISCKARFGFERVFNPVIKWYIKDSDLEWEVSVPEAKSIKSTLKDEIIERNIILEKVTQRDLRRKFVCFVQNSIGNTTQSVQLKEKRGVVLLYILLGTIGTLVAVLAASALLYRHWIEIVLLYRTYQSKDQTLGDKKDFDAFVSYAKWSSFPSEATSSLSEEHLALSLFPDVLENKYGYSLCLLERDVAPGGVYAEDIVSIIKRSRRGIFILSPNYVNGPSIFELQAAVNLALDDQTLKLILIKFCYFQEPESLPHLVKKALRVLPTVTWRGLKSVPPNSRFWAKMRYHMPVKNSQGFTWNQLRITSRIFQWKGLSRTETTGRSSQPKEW

B1: hzWio-02-31 (His form) (bispecific antibody)
chain: EVQLVESGGGLVQPGGSLRLSCAASGFTYIPAYMGWFRQAPGKERERVASISSTEGSTTYADSVKGRFTISQDNSKNTLYLQMNSLRPEDTAVYYCAAYQFGAFRVWGQGTLVTVSSGGGGSEVQLVESGGGLVQPGGSLRLSCAASGFTVHDMGWYRQAPGKECELVSTISSDASTYYADSVKGRFTISRDNAKNTLYLQMNSLRAEDTAVYYCAADSFTGLQLAECKADFGYWGQGTLVTVSSHHHHHH
B2: hzWio-02-30 (His form) (bispecific antibody)
chain: EVQLVESGGGLVQPGGSLRLSCAASGFTYIPAYMGWFRQAPGKERERVASISSTEGSTTYADSVKGRFTISQDNSKNTLYLQMNSLRPEDTAVYYCAAYQFGAFRVWGQGTLVTVSSGGGGSEVQLVESGGGLVQPGGSLRLSCAASGSTFDEYDMGWYRQAPGGKCELVSTISTIDASTYYADSVKGRFTISRDNSKNTLYLQMNSLRAEDTAVYYCEADDRGTWDRGGCWGQGTLVTVSSHHHHHH
B3: hzWio-02-09 (His form) (bispecific antibody)
chain: EVQLVESGGGLVQPGGSLRLSCAASGSTFDEYDMGWYRQAPGGKCELVSTISTIDASTYYADSVKGRFTISRDNSKNTLYLQMNSLRAEDTAVYYCEADDRGTWDRGGCWGQGTLVTVSSGGGGSEVQLVESGGGLVQPGGSLRLSCAASGFTYIPAYMGWFRQAPGKERERVASIKTDASTTYADSVEGRFTISQDNAKNTLYLQMNSLRPEDTAVYYCAAYQFGAFRVWGQGTLVTVSSHHHHHH
B4: hzWio-02-05-His (bispecific antibody)
chain: EVQLVESGGGLVQPGGSLRLSCAASGNLYRDPCMGWFRQAPGKDREGVAAMNTGADSTFYARSVKGRFTISRDNAKNTLYLQMNSLRAEDTAVYYCAASRYCTERTYTWRYDYDYWGQGTLVTVSSGGGGSEVQLVESGGGLVQPGGSLRLSCAASGFTYIPAYMGWFRQAPGKERERVASISSTEGSTTYADSVKGRFTISQDNSKNTLYLQMNSLRPEDTAVYYCAAYQFGAFRVWGQGTLVTVSSHHHHHH
B5: hzWio-02-03-His (bispecific antibody)
chain: EVQLVESGGGLVQPGGSLRLSCAASGNLYRDPCMGWFRQAPGKDREGVAAMNTGADSTFYARSVKGRFTISRDNAKNTLYLQMNSLRAEDTAVYYCAASRYCTERTYTWRYDYDYWGQGTLVTVSSGGGGSEVQLVESGGGLVQPGGSLRLSCAASGFTYIPAYMGWFRQAPGKERERVASIKTDASTTYADSVEGRFTISQDNAKNTLYLQMNSLRPEDTAVYYCAAYQFGAFRVWGQGTLVTVSSHHHHHH
B6: hzWio-02-11-His (bispecific antibody)
chain: EVQLVESGGGLVQPGGSLRLSCAASGSTFDEYDMGWYRQAPGGKCELVSTISTIDASTYYADSVKGRFTISRDNSKNTLYLQMNSLRAEDTAVYYCEADDRGTWDRGGCWGQGTLVTVSSGGGGSEVQLVESGGGLVQPGGSLRLSCAASGFTYIPAYMGWFRQAPGKERERVASISSTEGSTTYADSVKGRFTISQDNSKNTLYLQMNSLRPEDTAVYYCAAYQFGAFRVWGQGTLVTVSSHHHHHH
B7: hzWio-02-29 (His form) (bispecific antibody)
chain: EVQLLESGGGLVQPGGSLRLSCAASGYTYGPYCMGWFRQAPGKEREGVAAVGGDARTWYGNSVKGRFTISRDNSKNTLYLQMNSLRAEDTAVYYCAADFDRTVCSDDIYDYTYRGQGTLVTVSSGGGGSEVQLVESGGGLVQPGGSLRLSCAASGTAYDNACMGWFRQAPGKEREGVASIHLRDRTYYADSVKGRFTISRDNSKNTLYLQMNSLRAEDTAVYYCASSNICNALNLQGNTYWGQGTLVTVSSHHHHHH
B8: hzWio-02-23-His (bispecific antibody)
chain: EVQLVESGGGLVQPGGSLRLSCAASGFTVHDMGWYRQAPGKECELVSTISSDASTYYADSVKGRFTISRDNAKNTLYLQMNSLRAEDTAVYYCAADSFTGLQLAECKADFGYWGQGTLVTVSSGGGGSEVQLVESGGGLVQPGGSLRLSCAASGFTYIPAYMGWFRQAPGKERERVASISSTEGSTTYADSVKGRFTISQDNSKNTLYLQMNSLRPEDTAVYYCAAYQFGAFRVWGQGTLVTVSSHHHHHH
B9: hzWio-02-01-Hm17 (bispecific antibody)
chain: EVQLVESGGGLVQPGGSLRLSCAASGTAYDNACMGWFRQAPGKEREGVASIHLRDRTYHADSVKGRFTISRDNSKNTLYLQMNSLRAEDTAVYYCASSNICNALNLQGNTYWGQGTLVTVSSGGGGSEVQLLESGGGLVQPGGSLRLSCAASGYTYGPYCMGWFRQAPGKEREGVAAVGGDARTWYGNSVKGRFTISRDNSKNTLYLQMNSLRAEDTAVYYCAADFDRTVCSDDIYDYTYRGQGTLVTVSSHHHHHH
B10: hzWio-02-01-Hm33 (bispecific antibody)
chain: B9 chain with H59Y, G108H
B11: hzWio-02-01-Hm32 (bispecific antibody)
chain: B9 chain with H59Y, Q107H
B12: hzWio-02-01-Hm35 (bispecific antibody)
chain: B9 chain with H59Y, T110H
B13: hzWio-02-01-Hm31 (bispecific antibody)
chain: B9 chain with H59Y, L106H
B14: hzWio-02-01-Hm20 (bispecific antibody)
chain: B9 chain with H59Y, S62H
B15: hzWio-02-01-Hm19 (bispecific antibody)
chain: B9 chain with H59Y, D61H
B16: hzWio-02-01-Hm18 (bispecific antibody)
chain: B9 chain with H59Y, A60H
B17: hzWio-02-01-Hm24 (bispecific antibody)
chain: B9 chain with H59Y, S98H
B18: hzWio-02-01-Hm27 (bispecific antibody)
chain: B9 chain with H59Y, N102H
B19: hzWio-02-01-Hm21 (bispecific antibody)
chain: B9 chain with H59Y, V63H
B20: hzWio-02-01-Hm23 (bispecific antibody)
chain: B9 chain with H59Y, G65H
B21: hzWio-02-01-Hm22 (bispecific antibody)
chain: B9 chain with H59Y, K64H
B22: hzWio-02-01-Hm26 (bispecific antibody)
chain: B9 chain with H59Y, I100H
B23: hzWio-02-01-Hm29 (bispecific antibody)
chain: B9 chain with H59Y, L104H
B24: hzWio-02-01-Hm30 (bispecific antibody)
chain: B9 chain with H59Y, N105H
B25: hzWio-02-01-Hm28 (bispecific antibody)
chain: B9 chain with H59Y, A103H
B26: hzWio-02-01-Hm34 (bispecific antibody)
chain: B9 chain with H59Y, N109H
B27: hzWio-02-01-Hm25 (bispecific antibody)
chain: B9 chain with H59Y, N99H

Each binder was assayed against T1, human IL-18R1 and IL-18RAP on IL-18 … (assay: cell-based or functional assay).

Binder | EC50 [ng/mL] | Top630nm
B1 | 2.58 | 0.779
B2 | 2.74 | 0.837
B3 | 0.668 | 1.88
B4 | 0.201 | 1.72
B5 | 0.394 | 1.82
B6 | 0.101 | 1.58
B7 | 0.503 | 1.61
B8 | 0.13 | 1.95

Biological target: T1, human IL-18R1 and IL-18RAP on IL-18 …
Assay: cell-based or functional assay
Remark: another data set of the same source

Binder | EC50 | Top530nm
B9 | 1.47 ng/mL | 1
B10 | 19.5 ng/mL | 1.1
B11 | 10.9 ng/mL | 1.09
B12 | 6.99 ng/mL | 1.18
B13 | 7.75 ng/mL | 1.05
B14 | 0.582 ng/mL | 2.75
B15 | 0.84 ng/mL | 0.738
B16 | 0.696 ng/mL | 1.07
B17 | 1.97 ng/mL | 0.774
B18 | 0.433 ng/mL | 0.773
B19 | 2.12 ng/mL | 1.12
B20 | 0.238 ng/mL | 0.794
B21 | 0.182 ng/mL | 0.773
B22 | 0.301 ng/mL | 0.764
B23 | 0.67 ng/mL and 1.49 ng/mL | –
B24 | 28.7 ng/mL | 0.349
B25 | 0.42 ng/mL | 0.821
B26 | 12.9 ng/mL | 1
B27 | 0.04 ng/mL | 0.738
